Earlier results on one substance are cited in publication PMC3633488.

The Kd is a measure of binding affinity in units of concentration.

For the series, the target named is FGF-2 (Homo sapiens) (UniProt P09038).

As to perlecan (from UniProt P98160), the Kd is 70 nM.
